For assay [1], the target named is 23 amino acid synthetic M2e peptide of A/Fort Worth/1/50 (H1N1) (influenza A virus A/Fort Worth/1/50 (H1N1)). The experiment in a line: ELISA on coated 23mer M2e peptide.
Assay [2] deals with truncated M2 peptide SEQ ID NO 306. The experiment in a line: peptide ELISA, 5 µg/mL. A general note: ELISA stands for enzyme-linked immunosorbent assay.
Assay [3] has as its target truncated M2 peptide SEQ ID NO 307. As to the kind of experiment: peptide ELISA, 5 µg/mL.
The target in assay [4] is truncated M2 peptide SEQ ID NO 312. The experiment in a line: peptide ELISA, 5 µg/mL.
Assay [5] addresses truncated M2 peptide SEQ ID NO 314. As to the kind of experiment: peptide ELISA, 5 µg/mL.
Another assay addresses M2 peptide SEQ ID NO 273. As to the kind of experiment: peptide ELISA, 5 µg/mL.
The target of assay [6] is truncated M2 peptide SEQ ID NO 315. As to the kind of experiment: peptide ELISA, 5 µg/mL.
For assay [7], the target named is truncated M2 peptide SEQ ID NO 303. The experiment in a line: peptide ELISA, 5 µg/mL.
In assay [8] the target is truncated M2 peptide SEQ ID NO 313. As to the kind of experiment: peptide ELISA, 5 µg/mL.
Assay [9] has as its target truncated M2 peptide SEQ ID NO 310. As to the kind of experiment: peptide ELISA, 5 µg/mL.
The target of assay [10] is truncated M2 peptide SEQ ID NO 308. As to the kind of experiment: peptide ELISA, 5 µg/mL.
Assay [11] deals with truncated M2 peptide SEQ ID NO 298. The experiment in a line: peptide ELISA, 5 µg/mL.
The target in assay [12] is truncated M2 peptide SEQ ID NO 301. The experiment in a line: peptide ELISA, 5 µg/mL.
Assay [13] deals with truncated M2 peptide SEQ ID NO 299. The experiment in a line: peptide ELISA, 5 µg/mL.
In assay [14] the target is truncated M2 peptide SEQ ID NO 300. As to the kind of experiment: peptide ELISA, 5 µg/mL.
Assay [15] deals with truncated M2 peptide SEQ ID NO 309. The experiment in a line: peptide ELISA, 5 µg/mL.
Assay [16] addresses truncated M2 peptide SEQ ID NO 271. As to the kind of experiment: peptide ELISA, 5 µg/mL.
Assay [17] concerns the target truncated M2 peptide SEQ ID NO 304. As to the kind of experiment: peptide ELISA, 5 µg/mL.
Assay [18] addresses truncated M2 peptide SEQ ID NO 311. As to the kind of experiment: peptide ELISA, 5 µg/mL.
The target in assay [19] is truncated M2 peptide SEQ ID NO 305. The experiment in a line: peptide ELISA, 5 µg/mL.
For assay [20], the target named is truncated M2 peptide SEQ ID NO 302. The experiment in a line: peptide ELISA, 5 µg/mL.
Assay [21] has as its target truncated M2 peptide SEQ ID NO 316. The experiment in a line: peptide ELISA, 5 µg/mL.
Another assay has as its target T1, A.Hong Kong.1144.99.H3N2.
T1 M2: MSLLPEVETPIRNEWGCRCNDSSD
The experiment in a line: FACS, transfected 293 cells. (In general: In flow cytometry, cells or beads pass a laser one at a time.)

The next assay concerns the target T2, A.Hong Kong.1180.99 H3N2.
T2 M2: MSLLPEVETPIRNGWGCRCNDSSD
As to the kind of experiment: FACS, transfected 293 cells.

Assay [22] addresses T3, A.Hong Kong.1.68.H3N2.
T3 M2: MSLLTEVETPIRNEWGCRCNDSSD
As to the kind of experiment: FACS, transfected HEK293, 1 µg/ml [D00006 FIG. 3C-1].

The target of assay [23] is T4, A.Caracas.1.71.H3N2.
T4 M2: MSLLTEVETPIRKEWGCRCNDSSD
Described as above.

Assay [24] addresses truncated M2 peptide SEQ ID NO 309. As to the kind of experiment: peptide ELISA, 5 µg/mL. The source holds these as a separate data set.
Assay [25] concerns the target truncated M2 peptide SEQ ID NO 299. As to the kind of experiment: peptide ELISA, 5 µg/mL. The source holds these as a separate data set.
For assay [26], the target named is truncated M2 peptide SEQ ID NO 298. As to the kind of experiment: peptide ELISA, 5 µg/mL. This is another data set of the same source.
The target in assay [27] is T3, A.Hong Kong.1.68.H3N2. The experiment in a line: FACS, transfected 293 cells, 1 µg/mL.
For assay [28], the target named is T4, A.Caracas.1.71.H3N2. The experiment in a line: FACS, transfected 293 cells, 1 µg/mL.

Read-outs that look alike come from different tables or passages of the source.

Data on 3 molecules can be found in patent US20120315277A1, “Compositions and Methods for the Therapy and Diagnosis of Influenza” (priority 2011, published 2012).

As usually defined, the EC50 is the midpoint of the concentration-response curve. Take “14C2 (chimeric mouse V-region/human IgG1 kappa 14C2 antibody)”: the EC50 in [1] worked out at 0.01 µg/mL. In addition, the ELISA A450 in assay [2] came to 0.27; in [3], 3.99; in [4], 0.2; in [5] it was 0.17; in the assay with M2 peptide SEQ ID NO 273, 3.85; in assay [6] it was 0.15. The ELISA A450 in assay [7] worked out at 0.19; in [8] it was 0.21; in assay [9], 3.97; in [10] it was 3.9; in assay [11], 3.94; in [12], 0.19. Besides, the ELISA A450 in assay [13] amounted to 3.95; in assay [14], 0.15; in assay [15], 3.97; in assay [16] it was 0.21; in assay [17], 0.23; in [18], 0.18. In addition, the ELISA A450 is 0.22 in assay [19], 0.23 in assay [20] and 0.14 in assay [21].

B1: 8I10 (antibody, V domains shown)
VH: QVQLQESGPGLVKPSETLSLTCTVSGSSISNYYWSWIRQSPGKGLEWIGFIYYGGNTKYNPSLKSRVTISQDTSKSQVSLTMSSVTAAESAVYFCARASCSGGYCILDYWGQGTLVTVS
VL: DIQMTQSPSSLSASVGDRVTITCRASQNIYKYLNWYQQRPGKAPKGLISAASGLQSGVPSRFSGSGSGTDFTLTITSLQPEDFATYYCQQSYSPPLTFGGGTRVEIK
B1: the binding result is recorded as “no binding (tested: 1 µg/mL)” with A.Hong Kong.1144.99.H3N2, “no binding (tested: 1 µg/mL)” in the assay with A.Hong Kong.1180.99 H3N2, “binds” with A.Hong Kong.1.68.H3N2 [22] and “binds” in the assay with A.Caracas.1.71.H3N2 [23].

B2: 23K12 (antibody, V domains shown)
VH: EVQLVESGGGLVQPGGSLRISCAASGFTVSSNYMSWVRQAPGKGLEWVSVIYSGGSTYYADSVKGRFSFSRDNSKNTVFLQMNSLRAEDTAVYYCARCLSRMRGYGLDVWGQGTTVTVS
VL: DIQMTQSPSSLSASVGDRVTITCRTSQSISSYLNWYQQKPGKAPKLLIYAASSLQSGVPSRFSGSGSGTDFTLTISGLQPEDFATYYCQQSYSMPAFGQGTKLEIK
For the molecule B2, the binding result with A.Hong Kong.1144.99.H3N2 is “no binding (tested: 1 µg/mL)”; with A.Hong Kong.1180.99 H3N2, “no binding (tested: 1 µg/mL)”; with A.Hong Kong.1.68.H3N2 [27], “binds”; in the assay with A.Caracas.1.71.H3N2 [28], “binds”. Moreover, the ELISA A450 in [24] was 0.3; in assay [25] it was 0.21; in [26], 0.21.
